We go through 39 variants from the RNAGym collection of RNA variant scans (doi:10.7554/elife.90254).

Sequences and labels used below:
B1: LINE1-full (parent)
chain: UACGUAGGUGGUUUUCCCCUGAUAGUGCUAAGGGGGCCUGGAAGUUUGGACUGGGCAGAGCUCAACACAGCGUGGCAAAGUGGCUGUGGCUAGACUGCCUCUCUGGAUUCCUCGUCACUCAGCAGGGCAUCUCUGAGAGAAAUGCC

In the series the parent is B1. Kind of series: self-cleavage, relative activity (ratio to wild type); higher = more cleavage; in vitro, sequencing; the parent is a self-cleaving ribozyme.
As to UACGUAGGCGAUUUUCCCCUGAUAGUGCUAAGGGGGCCUGGAAGUUUGGACUGGGCAGAGCUCAACACAGCGUGGCAAAGUGGCUGUGGCUAGACUGCCUCUCUGGAUUCCUCGUCACUCAGCAGGGCAUCUCUGAGAGAAAUGCC [U9C G11A], the self-cleavage turned out to be 1.07.

As to UACGUAGGCGGUUUUCCCCUGAUAGUGCUAAGGGGGCCUGGAAGUUUGGACUGGGCAGAGCUCAACACAGCGUGGCAAAGUGGCUGUGGCUAGACUGCCUCUCUGGAUUCCUCGUCACUCAGCAGGGCAUCUCUGAGUGAAAUGCC [U9C A138U], the self-cleavage stood at 1.92.

In the case of UACGUAGGCGGUUUUCCCCUGAUAGUGCUAAGGGGGCCUGGAAGUUUGGACUGGGCAGAGCUCAACACAGCGUGGCAAAGUGGCUGUGGCUAGACUGCCUCUCUGGAUUCCUCGUCACUCAGCAGGGCAUUUCUGAGAGAAAUGCC [U9C C131U], the self-cleavage is 1.6.

Turning to UACGUAGGCGGUUUUCCCCUGAUAGUGCUAAGGGGGCCUGGAAGUUUGGACUGGGCAGAGCUCAACACAGCGUGGCAAAGUGGCUGUGGCUAGACUGCCUCUCUGGAUUCCUCGUCAUUCAGCAGGGCAUCUCUGAGAGAAAUGCC [U9C C118U], the self-cleavage turned out to be 0.92.

With UACGUAGGCGGUUUUCCCCUGAUAGUGCUAAGGGUGCCUGGAAGUUUGGACUGGGCAGAGCUCAACACAGCGUGGCAAAGUGGCUGUGGCUAGACUGCCUCUCUGGAUUCCUCGUCACUCAGCAGGGCAUCUCUGAGAGAAAUGCC [U9C G35U], the self-cleavage was determined as 1.13.

For the variant UACGUAGGCGGUUUUCCCCUGAUAGUGCUAAGGGGGCCUGGAAGUUUGGACUGGGCAGACCUCAACACAGCGUGGCAAAGUGGCUGUGGCUAGACUGCCUCUCUGGAUUCCUCGUCACUCAGCAGGGCAUCUCUGAGAGAAAUGCC [U9C G60C], the self-cleavage came out at 0.07.

With UACGUAGGCGGUUUUCCCCUGAUAUUGCUAAGGGGGCCUGGAAGUUUGGACUGGGCAGAGCUCAACACAGCGUGGCAAAGUGGCUGUGGCUAGACUGCCUCUCUGGAUUCCUCGUCACUCAGCAGGGCAUCUCUGAGAGAAAUGCC [U9C G25U], the self-cleavage came out at 0.96.

Consider UACGUAGGCGGUUUUCCCCUGAUAGUGCUAAGGGGGCCUGGAAGUUUGGACUGGGCAAAGCUCAACACAGCGUGGCAAAGUGGCUGUGGCUAGACUGCCUCUCUGGAUUCCUCGUCACUCAGCAGGGCAUCUCUGAGAGAAAUGCC [U9C G58A], for which the self-cleavage was determined as 0.04.

As for UACGUAGGCAGUUUUCCCCUGAUAGUGCUAAGGGGGCCUGGAAGUUUGGACUGGGCAGAGCUCAACACAGCGUGGCAAAGUGGCUGUGGCUAGACUGCCUCUCUGGAUUCCUCGUCACUCAGCAGGGCAUCUCUGAGAGAAAUGCC [U9C G10A], the self-cleavage is 0.86.

UACGUAGGCGGUUUUCCCCUGAUAGUGCUAAGGGGGCCUGGAAGUUUGGACUGGGCAGAGCUCAACACAGCGUGGCAAAGUGGCUGUGGCUAGACUGCCUCUCUGGAUUCCUCGUCACUUAGCAGGGCAUCUCUGAGAGAAAUGCC [U9C C120U]: the self-cleavage stood at 1.3.

As to UACGUAGGCGGUUUUCCCCUGAUAGUGCUAAGGGGGCCUGGAAGUUUGGACUGGGCAGAGCUCAACACAGCGUGGCAAAGUGGCUGUGGCUAGAUUGCCUCUCUGGAUUCCUCGUCACUCAGCAGGGCAUCUCUGAGAGAAAUGCC [U9C C95U], the self-cleavage was 0.19.

UACGUAGGCGGUUUUCCCCUGAUAGUGCUAAGGGGGCCUGGAAGUUUGGACUGGGCAGAGCUCAACACAGCGUGGCAAAGUGGCUGUGGCUAGACUGCCUCUCUGGAUUCCUAGUCACUCAGCAGGGCAUCUCUGAGAGAAAUGCC [U9C C113A]: the self-cleavage was found to be 1.2.

Regarding UACGUAGGCGGUUUUCCCCUGAUAGUGCUAAGGGGGCCUGGAAGUUUGGACUGGGCAGAGCUCAACACAGCGUGGCAAAGUGGCUGUGGCUAGACUGCCUCUCUGGAUUCCUUGUCACUCAGCAGGGCAUCUCUGAGAGAAAUGCC [U9C C113U], the self-cleavage came to 1.08.

UACGUAGGCGGUUUUCCUCUGAUAGUGCUAAGGGGGCCUGGAAGUUUGGACUGGGCAGAGCUCAACACAGCGUGGCAAAGUGGCUGUGGCUAGACUGCCUCUCUGGAUUCCUCGUCACUCAGCAGGGCAUCUCUGAGAGAAAUGCC [U9C C18U]: the self-cleavage amounted to 1.

Consider UACGUAGGCGGUUUUCCCCUGAUAGUGCUAAGGUGGCCUGGAAGUUUGGACUGGGCAGAGCUCAACACAGCGUGGCAAAGUGGCUGUGGCUAGACUGCCUCUCUGGAUUCCUCGUCACUCAGCAGGGCAUCUCUGAGAGAAAUGCC [U9C G34U], for which the self-cleavage is 1.09.

As to UACGUAGGCGGUUUUCCCCUGAUAGUGCUAAGGGGGCCUGGAAGUUUGGACUGGGCAGAGCUCAACACAGCGUGACAAAGUGGCUGUGGCUAGACUGCCUCUCUGGAUUCCUCGUCACUCAGCAGGGCAUCUCUGAGAGAAAUGCC [U9C G75A], the self-cleavage came to 1.4.

As for UACGUAGGCGGUUUUCCCCUGAUAGUGCUAAGGGGGCCUGGAAGUUUGGACUGGGCAGAGCUCAACACAGCGUGGCAAAGUGGCUGUGGCUAGACUGUCUCUCUGGAUUCCUCGUCACUCAGCAGGGCAUCUCUGAGAGAAAUGCC [U9C C98U], the self-cleavage was 0.59.

Regarding UACGUAGGCGGUUUUCCCCUGAUAGUGCUAAGGGGGCCUGGAAGUUUGGACUGGGCAGAGCUCAACACAGCAUGGCAAAGUGGCUGUGGCUAGACUGCCUCUCUGGAUUCCUCGUCACUCAGCAGGGCAUCUCUGAGAGAAAUGCC [U9C G72A], the self-cleavage was determined as 1.34.

Regarding UACGUAGGCGGUUUUCCCCUGAUAGUGCUAAGGGGCCCUGGAAGUUUGGACUGGGCAGAGCUCAACACAGCGUGGCAAAGUGGCUGUGGCUAGACUGCCUCUCUGGAUUCCUCGUCACUCAGCAGGGCAUCUCUGAGAGAAAUGCC [U9C G36C], the self-cleavage is 2.16.

Turning to UACGUAGGCGGUUUUCCCCUGAUAGUGCUAAGGGGGCCUGGAAGUUUGGAAUGGGCAGAGCUCAACACAGCGUGGCAAAGUGGCUGUGGCUAGACUGCCUCUCUGGAUUCCUCGUCACUCAGCAGGGCAUCUCUGAGAGAAAUGCC [U9C C51A], the self-cleavage was 0.63.

In the case of UACGUAGGCGGUUUUCCCCUGAUAGUGCUAAGGGGGCCUGGAAGUUUGGACUGGGCAGAGCUCAACACAGCGUGGCAAAGUGGCUGUGGGUAGACUGCCUCUCUGGAUUCCUCGUCACUCAGCAGGGCAUCUCUGAGAGAAAUGCC [U9C C90G], the self-cleavage came out at 0.09.

On to UACGUAGGCGGUUUUCCCCUGAUAGUGCUAAGGGGGCCUGGAAGUUUGGACUGGGCAGAGCUCAACACAGCGUGGCAAAGUGGCUGUGGUUAGACUGCCUCUCUGGAUUCCUCGUCACUCAGCAGGGCAUCUCUGAGAGAAAUGCC [U9C C90U], for which the self-cleavage amounted to 0.09.

As for UACGUAGGCGGUUUUCCCCUGAUAGUGCUAAGGGGGCCUGGAAGUUUGGACUGGGCAGAGCUCAACACAGCGUGGCAAAGUGGCUGUGGCUAGACUGCCUCUCUGGAUUCCUCGUCACUCAGCAGGGCGUCUCUGAGAGAAAUGCC [U9C A129G], the self-cleavage came out at 1.66.

For UACGUAGGCGGUUUUCCCCUGAUAGUGCUAAGGGGGCCUGGAAGUUUGGACUGGGCAGAGCUCAACACAGCGUGGCAAAGUGGCUGUGGCUAGACUGCCUCUCUGGAUUCCUCGUCACUCAGCAGGGCUUCUCUGAGAGAAAUGCC [U9C A129U], the self-cleavage is 1.27.

For UACGUAGGCGGUUUUCCCCUUAUAGUGCUAAGGGGGCCUGGAAGUUUGGACUGGGCAGAGCUCAACACAGCGUGGCAAAGUGGCUGUGGCUAGACUGCCUCUCUGGAUUCCUCGUCACUCAGCAGGGCAUCUCUGAGAGAAAUGCC [U9C G21U], the self-cleavage came to 1.37.

On to UACGUAGGCGGUUUUCCCCUGAUAGUGCUAAGGGGGCCUGGAAGUUUGGACUAGGCAGAGCUCAACACAGCGUGGCAAAGUGGCUGUGGCUAGACUGCCUCUCUGGAUUCCUCGUCACUCAGCAGGGCAUCUCUGAGAGAAAUGCC [U9C G53A], for which the self-cleavage worked out at 1.2.

With UACGUAGGCGGUUUUCACCUGAUAGUGCUAAGGGGGCCUGGAAGUUUGGACUGGGCAGAGCUCAACACAGCGUGGCAAAGUGGCUGUGGCUAGACUGCCUCUCUGGAUUCCUCGUCACUCAGCAGGGCAUCUCUGAGAGAAAUGCC [U9C C17A], the self-cleavage was 1.31.

As to UACGUAGGCGGUUUUCCCCUGAUAGUGCUAAGGGGGCCUGGAAGUUUGGACUGGGCAGAGCUCAACACAGCGUGGCAAAGUGGCUGUGGCUAGACUGCCUCUCUGGAUUCCUCGUGACUCAGCAGGGCAUCUCUGAGAGAAAUGCC [U9C C116G], the self-cleavage was determined as 1.21.

Regarding UACGUAGGCGGUUUUCCCCUGAUAGUGCUAAGGGGGCCUGGAAGUUUGGACUGGUCAGAGCUCAACACAGCGUGGCAAAGUGGCUGUGGCUAGACUGCCUCUCUGGAUUCCUCGUCACUCAGCAGGGCAUCUCUGAGAGAAAUGCC [U9C G55U], the self-cleavage amounted to 0.37.

As for UACGUAGGCGGUUUUCCCCUGAUAGUGCUAAGGGGGCCUGGAAGUUUGGACUGGACAGAGCUCAACACAGCGUGGCAAAGUGGCUGUGGCUAGACUGCCUCUCUGGAUUCCUCGUCACUCAGCAGGGCAUCUCUGAGAGAAAUGCC [U9C G55A], the self-cleavage was found to be 0.48.

In the case of UACGUAGGCGGUUUUCCCCUGAUAGUGCUAAGGGGGCCUGGAAAUUUGGACUGGGCAGAGCUCAACACAGCGUGGCAAAGUGGCUGUGGCUAGACUGCCUCUCUGGAUUCCUCGUCACUCAGCAGGGCAUCUCUGAGAGAAAUGCC [U9C G44A], the self-cleavage stood at 0.69.

Turning to UACGUAGGCGGUUUUCCCCUGAUAGUGCUAAGGGGGCCUGGAAGUUUGGACUGAGCAGAGCUCAACACAGCGUGGCAAAGUGGCUGUGGCUAGACUGCCUCUCUGGAUUCCUCGUCACUCAGCAGGGCAUCUCUGAGAGAAAUGCC [U9C G54A], the self-cleavage is 0.65.

For UACGUAGGCGGUUUUCCCCUGAUAGUGCUAAGGGGGCCUGGAAGUUUGGACUGGGUAGAGCUCAACACAGCGUGGCAAAGUGGCUGUGGCUAGACUGCCUCUCUGGAUUCCUCGUCACUCAGCAGGGCAUCUCUGAGAGAAAUGCC [U9C C56U], the self-cleavage came out at 0.37.

With UACGUAGGCGGUUUUCCCCUGAUAGUGCUAAGGGGGCCUGGAAGUUUGUACUGGGCAGAGCUCAACACAGCGUGGCAAAGUGGCUGUGGCUAGACUGCCUCUCUGGAUUCCUCGUCACUCAGCAGGGCAUCUCUGAGAGAAAUGCC [U9C G49U], the self-cleavage came to 1.08.

Regarding UACGUAGGCGGUUUUCCCCUGAUAGUGCUAAGAGGGCCUGGAAGUUUGGACUGGGCAGAGCUCAACACAGCGUGGCAAAGUGGCUGUGGCUAGACUGCCUCUCUGGAUUCCUCGUCACUCAGCAGGGCAUCUCUGAGAGAAAUGCC [U9C G33A], the self-cleavage stood at 1.01.

Take UACGUAGGCGGUUUUCCCAUGAUAGUGCUAAGGGGGCCUGGAAGUUUGGACUGGGCAGAGCUCAACACAGCGUGGCAAAGUGGCUGUGGCUAGACUGCCUCUCUGGAUUCCUCGUCACUCAGCAGGGCAUCUCUGAGAGAAAUGCC [U9C C19A]: the self-cleavage was determined as 1.55.

Take UACGUAGGCGGUUUUCCCUUGAUAGUGCUAAGGGGGCCUGGAAGUUUGGACUGGGCAGAGCUCAACACAGCGUGGCAAAGUGGCUGUGGCUAGACUGCCUCUCUGGAUUCCUCGUCACUCAGCAGGGCAUCUCUGAGAGAAAUGCC [U9C C19U]: the self-cleavage came to 1.65.

Turning to UACGUAGGCGGUUUUCCCCUGAUAGUGCUAAGGGGGCCUGGAAGUUUGGACUGGGCAGAGCUCAACACAGCGUGGCAAAGUGGCUGUGGCUAGACUGCCUCUCUGGAUUCCUCGUCACUCAGCAGGGCAUCUCUGAGAGGAAUGCC [U9C A140G], the self-cleavage stood at 1.19.

With UACGUAGGCGGUUUUCCCCUGAUAGUGCUAAGGGGGCCUGGAAGUUUGGACUGGGCAGAGCUCAACACAGCGUGGCAAAGUGGCUGUGGCUAGACUGCCUCUCUGGAUUCCUCGUCACUCAGCAGGGCAUCUCUGAGAGUAAUGCC [U9C A140U], the self-cleavage came out at 1.35.
